These results are taken from US20190169241A1 (BOARD OF TRUSTEES OF THE UNIVERSITY OF ILLINOIS, published 2019).

In experiment [1] the target is T1, vascular endothelial growth factor receptor 2 (VEGFR2), endogenous, from HUVEC lysates (human, UniProt P35968 20-1356).
T1 construct: Endogenous receptor from cell lysate, detected by western blot with anti-VEGFR2 antibody or by mass spectrometry; also called Flk-1
Put plainly: pull-down from HUVEC lysate with recombinant protein on beads, anti-VEGFR2 western blot. The source says: The DUFs were identified from amino acid sequence similarity on the Pfam database. It has been previously shown that both domains of DUF3694 directly bind recombinant VEGFR2 in vitro (Yamada, et al. (2007) Biochemistry 46:10039-45). […] DUF2 was divided into 3 parts, DUF2A (residues 1111-1167), DUF2B (residues 1168-1216), and DUF2C (residues 1217-1281) and each part was expressed as a recombinant protein in bacteria. VEGFR2 was abundantly expressed in HUVECs; thus, cell lysate from HUVECs was incubated with these recombinant proteins on beads, and VEGFR2 binding was determined using the anti-VEGFR2 antibody.
For orientation: A western blot detects proteins with antibodies after separation by electrophoresis.

For experiment [2], the target named is T1, vascular endothelial growth factor …. Put plainly: pull-down of endogenous VEGFR2 from HUVEC lysate with the recombinant truncation on beads, western blot with anti-VEGFR2 antibody.
For experiment [3], the target named is Tie2 (UniProt Q02763 23-1124, limits assumed). Put plainly: pull-down with peptide on streptavidin beads, mass spec analysis.
In experiment [4] the target is T2, Par1 (UniProt P25116 22-425, limits assumed).
T2 sequence (looked up): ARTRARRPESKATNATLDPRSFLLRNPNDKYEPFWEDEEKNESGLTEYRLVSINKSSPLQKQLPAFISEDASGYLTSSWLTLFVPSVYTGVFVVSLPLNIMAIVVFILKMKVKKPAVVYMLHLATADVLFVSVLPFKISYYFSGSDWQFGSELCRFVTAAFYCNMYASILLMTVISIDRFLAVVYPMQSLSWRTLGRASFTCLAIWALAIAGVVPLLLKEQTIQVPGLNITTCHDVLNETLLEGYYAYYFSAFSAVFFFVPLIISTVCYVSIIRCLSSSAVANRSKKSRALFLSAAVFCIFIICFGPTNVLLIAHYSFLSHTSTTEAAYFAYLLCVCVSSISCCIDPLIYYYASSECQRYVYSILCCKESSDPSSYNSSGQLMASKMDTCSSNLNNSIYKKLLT
The experiment is described as above.

The target in experiment [5] is T3, VEGFR2, recombinant cytosolic domain (Fisher Scientific) (UniProt P35968 789-1356, limits assumed).
T3 construct: domain: cytosolic domain; Analyte in the BIACORE experiment
Put plainly: SPR (BIACORE), peptide on avidin-coated chip, recombinant cytosolic domain as analyte. (In general: SPR reads the build-up and loss of mass on a sensor chip optically.)

For experiment [6], the target named is PDGFRα, endogenous, found in the pull-down by mass spectrometry (UniProt P16234 24-1089, limits assumed). The experiment can be described thus: pull-down with peptide on streptavidin beads, mass spec analysis.
Experiment [7] deals with EGFR, endogenous, found in the pull-down by mass spectrometry (UniProt P00533 25-1210, limits assumed). Described as above.
The target in experiment [8] is PDGFRβ, endogenous, found in the pull-down by mass spectrometry (UniProt P09619 33-1106, limits assumed). The experiment is described as above.
Experiment [9] addresses T1, vascular endothelial growth factor …. Put plainly: pull-down from HUVEC lysates, peptide on streptavidin beads.

No end group written: not given here.

T1 sequence (P35968 20-1356 limits assumed): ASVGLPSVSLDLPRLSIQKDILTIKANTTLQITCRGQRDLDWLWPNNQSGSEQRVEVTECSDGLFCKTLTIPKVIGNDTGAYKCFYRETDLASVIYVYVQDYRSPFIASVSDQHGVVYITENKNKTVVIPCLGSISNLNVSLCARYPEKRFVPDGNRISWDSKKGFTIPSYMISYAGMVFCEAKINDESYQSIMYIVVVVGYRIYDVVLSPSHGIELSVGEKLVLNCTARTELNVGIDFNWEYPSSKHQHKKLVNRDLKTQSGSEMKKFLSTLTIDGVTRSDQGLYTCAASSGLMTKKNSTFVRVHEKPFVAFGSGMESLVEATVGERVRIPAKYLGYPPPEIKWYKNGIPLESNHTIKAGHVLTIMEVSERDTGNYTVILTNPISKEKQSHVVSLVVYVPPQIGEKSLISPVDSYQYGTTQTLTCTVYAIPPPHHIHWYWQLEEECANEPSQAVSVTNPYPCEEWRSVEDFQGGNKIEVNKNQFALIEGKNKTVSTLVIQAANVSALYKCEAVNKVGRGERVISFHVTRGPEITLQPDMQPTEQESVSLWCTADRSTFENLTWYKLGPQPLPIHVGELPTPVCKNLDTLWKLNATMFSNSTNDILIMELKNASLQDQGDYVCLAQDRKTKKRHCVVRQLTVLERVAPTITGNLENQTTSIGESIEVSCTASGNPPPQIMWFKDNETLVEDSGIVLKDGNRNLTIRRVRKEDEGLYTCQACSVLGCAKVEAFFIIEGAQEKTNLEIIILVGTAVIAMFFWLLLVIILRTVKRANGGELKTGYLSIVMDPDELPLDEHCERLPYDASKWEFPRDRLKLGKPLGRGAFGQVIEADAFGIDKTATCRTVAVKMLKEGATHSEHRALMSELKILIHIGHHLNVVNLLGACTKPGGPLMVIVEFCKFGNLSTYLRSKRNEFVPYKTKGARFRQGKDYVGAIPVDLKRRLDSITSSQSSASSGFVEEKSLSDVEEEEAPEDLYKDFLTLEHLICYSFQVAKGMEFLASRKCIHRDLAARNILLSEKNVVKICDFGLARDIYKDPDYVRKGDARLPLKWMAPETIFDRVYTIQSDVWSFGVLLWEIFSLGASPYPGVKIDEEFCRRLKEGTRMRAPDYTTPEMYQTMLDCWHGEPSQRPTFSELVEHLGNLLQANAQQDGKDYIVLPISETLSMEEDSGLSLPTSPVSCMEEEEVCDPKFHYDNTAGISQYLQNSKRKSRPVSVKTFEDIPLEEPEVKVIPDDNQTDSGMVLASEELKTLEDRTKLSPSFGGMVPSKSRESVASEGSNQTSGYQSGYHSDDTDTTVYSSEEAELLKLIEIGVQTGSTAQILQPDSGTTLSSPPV
T3 sequence (P35968 789-1356 limits assumed): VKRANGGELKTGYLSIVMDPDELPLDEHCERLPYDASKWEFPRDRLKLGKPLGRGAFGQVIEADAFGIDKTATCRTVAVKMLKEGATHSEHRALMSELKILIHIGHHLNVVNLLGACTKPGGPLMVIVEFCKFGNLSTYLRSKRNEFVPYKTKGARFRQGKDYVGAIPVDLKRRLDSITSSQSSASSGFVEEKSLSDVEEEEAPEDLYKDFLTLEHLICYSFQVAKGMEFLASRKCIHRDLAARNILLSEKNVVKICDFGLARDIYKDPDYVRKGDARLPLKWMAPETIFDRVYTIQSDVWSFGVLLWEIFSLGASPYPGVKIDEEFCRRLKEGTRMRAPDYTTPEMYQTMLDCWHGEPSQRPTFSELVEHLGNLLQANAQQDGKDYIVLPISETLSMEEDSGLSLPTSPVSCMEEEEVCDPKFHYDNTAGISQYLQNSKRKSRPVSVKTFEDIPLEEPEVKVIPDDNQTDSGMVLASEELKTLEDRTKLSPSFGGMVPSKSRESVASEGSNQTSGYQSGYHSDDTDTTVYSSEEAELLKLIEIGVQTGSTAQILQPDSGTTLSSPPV
Tie2, sequence (Q02763 23-1124 limits assumed): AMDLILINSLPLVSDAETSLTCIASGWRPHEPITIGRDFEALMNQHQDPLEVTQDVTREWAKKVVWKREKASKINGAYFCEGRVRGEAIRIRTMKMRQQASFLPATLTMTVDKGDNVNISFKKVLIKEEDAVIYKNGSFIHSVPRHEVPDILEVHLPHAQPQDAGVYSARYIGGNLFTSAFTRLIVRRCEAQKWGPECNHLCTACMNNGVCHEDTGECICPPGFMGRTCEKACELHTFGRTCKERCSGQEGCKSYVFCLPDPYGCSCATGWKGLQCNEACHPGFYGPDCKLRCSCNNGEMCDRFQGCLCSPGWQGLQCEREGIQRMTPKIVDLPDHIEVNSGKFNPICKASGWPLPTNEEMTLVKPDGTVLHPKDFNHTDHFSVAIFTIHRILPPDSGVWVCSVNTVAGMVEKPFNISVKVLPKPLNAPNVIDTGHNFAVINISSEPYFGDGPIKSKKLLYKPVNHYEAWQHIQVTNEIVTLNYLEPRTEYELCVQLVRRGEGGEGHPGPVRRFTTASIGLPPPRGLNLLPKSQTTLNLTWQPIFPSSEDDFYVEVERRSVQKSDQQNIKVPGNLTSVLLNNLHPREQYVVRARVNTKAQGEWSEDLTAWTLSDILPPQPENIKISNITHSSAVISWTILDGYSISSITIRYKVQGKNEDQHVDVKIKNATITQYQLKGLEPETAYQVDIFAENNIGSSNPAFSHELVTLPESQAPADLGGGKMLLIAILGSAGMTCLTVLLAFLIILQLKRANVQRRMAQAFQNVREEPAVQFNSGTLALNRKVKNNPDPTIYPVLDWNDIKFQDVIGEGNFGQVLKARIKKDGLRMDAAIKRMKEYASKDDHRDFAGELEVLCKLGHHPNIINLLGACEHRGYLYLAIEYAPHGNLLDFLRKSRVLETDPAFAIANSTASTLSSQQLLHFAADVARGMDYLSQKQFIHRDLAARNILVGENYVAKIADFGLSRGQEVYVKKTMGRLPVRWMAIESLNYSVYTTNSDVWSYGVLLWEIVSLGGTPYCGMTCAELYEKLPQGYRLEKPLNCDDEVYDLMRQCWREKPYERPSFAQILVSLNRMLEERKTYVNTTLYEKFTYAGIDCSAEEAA
PDGFRβ, endogenous, found in the pull-down by mass spectrometry, sequence (P09619 33-1106 limits assumed): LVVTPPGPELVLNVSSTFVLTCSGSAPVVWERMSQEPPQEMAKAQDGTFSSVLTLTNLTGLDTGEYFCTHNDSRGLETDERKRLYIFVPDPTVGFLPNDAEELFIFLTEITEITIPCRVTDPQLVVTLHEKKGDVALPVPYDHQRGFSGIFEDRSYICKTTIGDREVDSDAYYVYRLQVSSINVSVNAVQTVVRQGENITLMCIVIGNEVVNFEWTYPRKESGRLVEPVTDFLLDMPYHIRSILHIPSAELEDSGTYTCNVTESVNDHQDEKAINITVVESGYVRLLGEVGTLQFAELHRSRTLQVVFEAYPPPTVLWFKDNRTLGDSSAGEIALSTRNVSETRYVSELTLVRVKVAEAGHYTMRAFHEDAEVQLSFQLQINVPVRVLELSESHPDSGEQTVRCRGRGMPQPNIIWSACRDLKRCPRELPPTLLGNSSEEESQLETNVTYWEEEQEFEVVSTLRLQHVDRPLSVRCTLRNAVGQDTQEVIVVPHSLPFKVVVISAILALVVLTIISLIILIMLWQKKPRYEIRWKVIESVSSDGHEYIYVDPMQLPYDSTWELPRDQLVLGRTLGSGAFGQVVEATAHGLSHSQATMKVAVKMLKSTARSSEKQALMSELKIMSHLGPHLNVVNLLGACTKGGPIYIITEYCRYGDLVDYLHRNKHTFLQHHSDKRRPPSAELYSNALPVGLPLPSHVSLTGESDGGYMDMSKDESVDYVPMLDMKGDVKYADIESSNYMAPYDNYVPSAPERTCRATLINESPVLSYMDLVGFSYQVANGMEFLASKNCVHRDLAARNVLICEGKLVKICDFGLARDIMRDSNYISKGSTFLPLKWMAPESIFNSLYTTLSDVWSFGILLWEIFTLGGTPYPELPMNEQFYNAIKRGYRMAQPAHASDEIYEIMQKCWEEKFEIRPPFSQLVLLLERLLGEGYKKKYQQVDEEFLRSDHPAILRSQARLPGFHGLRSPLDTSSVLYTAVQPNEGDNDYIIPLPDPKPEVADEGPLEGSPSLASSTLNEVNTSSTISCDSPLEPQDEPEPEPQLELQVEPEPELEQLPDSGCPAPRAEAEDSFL

B1: DUF2B (residues 1168-1216 of KIF13B), recombinant protein from bacteria (other, human, UniProt Q9NQT8 1168-1216, looked up)
chain: THIPVIFLDLNADDFSSQDNLDDPEAGGWDATLTGEEEEEFFELQIVKQ
notes: range 1168-1216; not shown: His-tag and S-tag
With B1, the binding result in experiment [1] is reported as “no binding”.

B2: C7 (peptide, not shown: small tags and cut ends)
peptide: ADMQLVLRKRICVNVHGRQGF
notes: the sheet prints only 'C7'; also called DUF2C7; DUF C7 (1261-1281 aa)
In the case of B2, the binding result in experiment [2] was “no binding”.

B3: C1 (peptide, UniProt Q9NQT8 1202-1240, looked up)
single chain: GEEEEEFFELQIVKQHDGEVKAEASWDSAVHGCPQLSRG
notes: recombinant truncated mutant expressed in bacteria with His-tag and S-tag; the sheet prints only 'C1'; also called DUF2C1; DUF C1 (1202-1240 aa)
As for B3, in experiment [2], the binding result is on record as “no binding”.

B4: Biotin-DUF2C5 peptide (synthetic, residues 1238-1260 of KIF13B with a biotin-tag) (peptide)
peptide: SRGTPVDERLFLIVRVTVQLSHP
modifications: also: biotin-tag (position not given here)
notes: Immobilised on streptavidin beads (pull-down, mass spectrometry) or on an avidin-coated BIACORE chip
What is called Kd is the free concentration of one partner at which half of the binding sites on the other are occupied at equilibrium, for simple one-to-one binding. With B4, the binding result in [3] and in experiment [4] was “no binding” in each case. In addition, the dissociation constant Kd in experiment [5] amounted to 5.5 nM.

B5: CT23 (residues 1650 to 1672 of KIF13B), synthetic negative control peptide with a biotin-tag (peptide, UniProt Q9NQT8 1650-1672, looked up)
peptide: RVRASELRSFSRMLAGDPGCSPG
modifications: also: biotin-tag (position not given here)
notes: range 1650-1672
In the case of B5, the binding result in experiment [6], in [7], in [8], in [9] and in experiment [5] was “no binding” in each case.

B6: C4 (peptide, UniProt Q9NQT8 1226-1251, looked up)
single chain: SWDSAVHGCPQLSRGTPVDERLFLIV
notes: recombinant truncated mutant expressed in bacteria with His-tag and S-tag; the sheet prints only 'C4'; also called DUF2C4; DUF C4 (1226-1251 aa)
Regarding B6, the binding result in experiment [2] is given as “no binding”.

B7: DUF2A (residues 1111-1167 of KIF13B), recombinant protein from bacteria (other, human, UniProt Q9NQT8 1111-1167, looked up)
chain: QKLVSKRDKTEDDADREAQLLEMRLTLTEERNAVMVPSAGSGIPGAPAEWTPVPGME
notes: range 1111-1167; not shown: His-tag and S-tag
In the case of B7, in [1], the binding result is listed as “no binding”.
